Assay results taken from patent publication US20200199204A1.

Assays:
Test in all cases: cell-based or functional assay
[1] = target: HIV-1 Env of ZM233.6 (HIV-1)
[2] = target: HIV-1 Env of CAP256.PI (HIV-1)
[3] = target: HIV-1 Env of Q259.d2.17 (HIV-1)
[4] = target: HIV-1 Env of Q23.17 (HIV-1)
[5] = target: HIV-1 Env of ZM214.15 (HIV-1)
[6] = target: HIV-1 Env of 191821.E6.1 (HIV-1)
[7] = target: HIV-1 Env of CAP45.G3 (HIV-1)
[8] = target: HIV-1 Env of AC10.29 (HIV-1)
[9] = target: HIV-1 Env of 6405.v4.c34 (HIV-1)
[10] = target: HIV-1 Env of PVO.04 (HIV-1)
[11] = target: HIV-1 Env of SC422.8 (HIV-1)
[12] = target: HIV-1 Env of ZM135.10a (HIV-1)
[13] = target: HIV-1 Env of RW020.2 (HIV-1)
[14] = target: HIV-1 Env of ZM109.4 (HIV-1)
[15] = target: HIV-1 Env of UG037.8 (HIV-1)
[16] = target: HIV-1 Env of TRJO.58 (HIV-1)
[17] = target: HIV-1 Env of CAP256.SU (HIV-1)
[18] = target: HIV-1 Env of ZM249.1 (HIV-1)
[19] = target: HIV-1 Env of TRO.11 (HIV-1)
[20] = target: HIV-1 Env of DU172.17 (HIV-1)
[21] = target: HIV-1 Env of CAAN.A2 (HIV-1)
[22] = target: HIV-1 Env of 96ZM651.02 (HIV-1)
[23] = target: HIV-1 Env of RHPA.7 (HIV-1)
[24] = target: HIV-1 Env of DU156.12 (HIV-1)
[25] = target: HIV-1 Env of WITO.33 (HIV-1)
[26] = target: HIV-1 Env of 0260.v5.c36 (HIV-1)
[27] = target: HIV-1 Env of CM244.ec1 (HIV-1)
[28] = target: HIV-1 Env of ZM197.7 (HIV-1)
[29] = target: HIV-1 Env of MB539.2B7 (HIV-1)
[30] = target: HIV-1 Env of KER2018.11 (HIV-1)
[31] = target: HIV-1 Env of Q461.e2 (HIV-1)
[32] = target: HIV-1 Env of Q168.a2 (HIV-1)
[33] = target: HIV-1 Env of BG505.w6m (HIV-1)
[34] = target: HIV-1 Env of 3016.V5.c36 (HIV-1)
[35] = target: HIV-1 Env of MB201 (HIV-1)
[36] = target: HIV-1 Env of CAP244.D3 (HIV-1)
[37] = target: HIV-1 Env of TH976.17 (HIV-1)
[38] = target: HIV-1 Env of DU422.01 (HIV-1)
[39] = target: HIV-1 Env of KER2008.12 (HIV-1)
[40] = target: HIV-1 Env of THRO.18 (HIV-1)
[41] = target: HIV-1 Env of Q769.d22 (HIV-1)
[42] = target: HIV-1 Env of Q842.d12 (HIV-1)
[43] = target: HIV-1 Env of C1080.c3 (HIV-1)
[44] = target: HIV-1 Env of 6535.3 (HIV-1)
[45] = target: HIV-1 Env of QH0692.42 (HIV-1)
[46] = target: HIV-1 Env of ZM53.12 (HIV-1)
[47] = target: HIV-1 Env of CNE3 (HIV-1)
[48] = target: HIV-1 Env of REJO.67 (HIV-1)
[49] = target: HIV-1 Env of CAP210.E8 (HIV-1)
[50] = target: Env of SIVmac251.30 (SIV (SIVmac251))

CAP256-VRC26.22 (antibody) gave an IC50 [1] of 0.001 µg/mL, an IC50 [2] of over 50 µg/mL and an IC50 [3] of 0.005 µg/mL. The IC50 [4] was 0.006 µg/mL, the IC50 [5] was over 50 µg/mL and the IC50 [6] was 2.12 µg/mL. The IC50 [7] was 1.4 µg/mL, the IC50 [8] was over 50 µg/mL and the IC50 [9] was over 50 µg/mL. For the same substance, the IC50 [10] was 9.03 µg/mL, the IC50 [11] was over 50 µg/mL and the IC50 [12] was over 50 µg/mL. It also gave an IC50 [13] of over 50 µg/mL, an IC50 [14] of over 50 µg/mL and an IC50 [15] of over 50 µg/mL. It also gave an IC50 [16] of over 50 µg/mL, an IC50 [17] of 0.002 µg/mL and an IC50 [18] of 0.13 µg/mL. The IC50 [19] was over 50 µg/mL, the IC50 [20] was over 50 µg/mL and the IC50 [21] was over 50 µg/mL. For the same substance, the IC50 [22] was over 50 µg/mL, the IC50 [23] was over 50 µg/mL and the IC50 [24] was 0.15 µg/mL. The IC50 [25] was over 50 µg/mL, the IC50 [26] was over 50 µg/mL and the IC50 [27] was 4.54 µg/mL. The IC50 [28] was 0.09 µg/mL, the IC50 [29] was 17.9 µg/mL and the IC50 [30] was 0.002 µg/mL. It also gave an IC50 [31] of 4.1 µg/mL, an IC50 [32] of 0.007 µg/mL and an IC50 [33] of 0.035 µg/mL. It also gave an IC50 [34] of 0.022 µg/mL, an IC50 [35] of over 50 µg/mL and an IC50 [36] of over 50 µg/mL. For the same substance, the IC50 (neutralization, TZM-bl) [37] was over 50 µg/mL, the IC50 [38] was 0.012 µg/mL and the IC50 [39] was 1.23 µg/mL. For the same substance, the IC50 [40] was over 50 µg/mL, the IC50 [41] was over 50 µg/mL and the IC50 [42] was 0.63 µg/mL. For the same substance, the IC50 [43] was 0.013 µg/mL, the IC50 [44] was over 50 µg/mL and the IC50 [45] was over 50 µg/mL. For the same substance, the IC50 [46] was 0.002 µg/mL, the IC50 (neutralization, TZM-bl) [47] was over 50 µg/mL and the IC50 [48] was over 50 µg/mL. For the same substance, the IC50 [49] was 0.003 µg/mL.

With CAP256-VRC26.23 (antibody) the IC50 [1] was over 50 µg/mL, the IC50 [2] was over 50 µg/mL and the IC50 [3] was over 50 µg/mL. The IC50 [4] was over 50 µg/mL, the IC50 [5] was over 50 µg/mL and the IC50 [6] was over 50 µg/mL. For the same substance, the IC50 [7] was over 50 µg/mL, the IC50 [8] was over 50 µg/mL and the IC50 [9] was over 50 µg/mL. For the same substance, the IC50 [10] was over 50 µg/mL, the IC50 [11] was over 50 µg/mL and the IC50 [12] was over 50 µg/mL. The IC50 [13] was over 50 µg/mL, the IC50 [14] was over 50 µg/mL and the IC50 [15] was over 50 µg/mL. For the same substance, the IC50 [16] was over 50 µg/mL, the IC50 [17] was 0.019 µg/mL and the IC50 [18] was over 50 µg/mL. The IC50 [19] was over 50 µg/mL, the IC50 [20] was over 50 µg/mL and the IC50 [21] was over 50 µg/mL. It also gave an IC50 [22] of over 50 µg/mL, an IC50 [23] of over 50 µg/mL and an IC50 [24] of over 50 µg/mL. For the same substance, the IC50 [25] was over 50 µg/mL, the IC50 [26] was over 50 µg/mL and the IC50 [27] was over 50 µg/mL. It also gave an IC50 [28] of over 50 µg/mL, an IC50 [29] of over 50 µg/mL and an IC50 [30] of 10 µg/mL. It also gave an IC50 [31] of over 50 µg/mL, an IC50 [32] of over 50 µg/mL and an IC50 [33] of over 50 µg/mL. It also gave an IC50 [34] of over 50 µg/mL, an IC50 [35] of over 50 µg/mL and an IC50 [36] of over 50 µg/mL. The IC50 (neutralization, TZM-bl) [37] was over 50 µg/mL, the IC50 [38] was over 50 µg/mL and the IC50 [39] was over 50 µg/mL. It also gave an IC50 [40] of over 50 µg/mL, an IC50 [41] of over 50 µg/mL and an IC50 [42] of over 50 µg/mL. For the same substance, the IC50 [43] was over 50 µg/mL, the IC50 [44] was over 50 µg/mL and the IC50 [45] was over 50 µg/mL. The IC50 [46] was 0.028 µg/mL, the IC50 (neutralization, TZM-bl) [47] was over 50 µg/mL and the IC50 [48] was over 50 µg/mL. For the same substance, the IC50 [49] was 0.019 µg/mL.

Substance CAP256-VRC26.24 (antibody) has an IC50 [1] of 1.67 µg/mL, an IC50 [2] of over 50 µg/mL and an IC50 [3] of 31.1 µg/mL. It also gave an IC50 [4] of 5.92 µg/mL, an IC50 [5] of 32 µg/mL and an IC50 [7] of 0.672 µg/mL. It also gave an IC50 [8] of over 50 µg/mL, an IC50 [9] of over 50 µg/mL and an IC50 [10] of over 50 µg/mL. It also gave an IC50 [11] of over 50 µg/mL, an IC50 [12] of over 50 µg/mL and an IC50 [13] of over 50 µg/mL. The IC50 [14] was 16.5 µg/mL, the IC50 [15] was over 50 µg/mL and the IC50 [16] was over 50 µg/mL. It also gave an IC50 [17] of 0.04 µg/mL, an IC50 [18] of 13.6 µg/mL and an IC50 [19] of over 50 µg/mL. For the same substance, the IC50 [20] was over 50 µg/mL, the IC50 [21] was over 50 µg/mL and the IC50 [22] was over 50 µg/mL. For the same substance, the IC50 [23] was over 50 µg/mL, the IC50 [24] was 10.8 µg/mL and the IC50 (neutralization, TZM-bl) [50] was over 50 µg/mL. It also gave an IC50 [25] of over 50 µg/mL, an IC50 [26] of over 50 µg/mL and an IC50 [27] of over 50 µg/mL. The IC50 [28] was 12.6 µg/mL, the IC50 [29] was over 50 µg/mL and the IC50 [30] was 1.1 µg/mL. For the same substance, the IC50 [31] was over 50 µg/mL, the IC50 [32] was 3.41 µg/mL and the IC50 [33] was 5.63 µg/mL. It also gave an IC50 [34] of 2.12 µg/mL, an IC50 [35] of over 50 µg/mL and an IC50 [36] of over 50 µg/mL. For the same substance, the IC50 (neutralization, TZM-bl) [37] was over 50 µg/mL, the IC50 [38] was 21.6 µg/mL and the IC50 [39] was over 50 µg/mL. It also gave an IC50 [40] of over 50 µg/mL, an IC50 [41] of over 50 µg/mL and an IC50 [42] of over 50 µg/mL. It also gave an IC50 [43] of 17.4 µg/mL, an IC50 [44] of over 50 µg/mL and an IC50 [45] of over 50 µg/mL. For the same substance, the IC50 [46] was 0.047 µg/mL, the IC50 (neutralization, TZM-bl) [47] was over 50 µg/mL and the IC50 [48] was over 50 µg/mL. The IC50 [49] was 0.23 µg/mL.
